Results taken from US20240091260A1 (FRED HUTCHINSON CANCER CENTER, published 2024).

Assays:
[1] = biological target: T1, PRAME … (ALY) peptide in complex with HLA-A*0201 (HLA-A2) (human); assay: flow cytometry on OCI-AML2 cells, against isotype control
T1 construct: whole, on cells; Naturally processed and presented on PRAME+/HLA-A2+ cells (THP-1, OCI-AML2, RS4;11 HLA-A2+, primary AML blasts, SK-N-SH); no recombinant complex was used; also called PRAME ALY/HLA-A2; PRAME/HLA-A2 complex
Description: (§1) Flow cytometry of xenograft cells. PE-conjugated Pr20 antibody was used to confirm PRAME expression on target cell lines and primary patient AML samples. Cell lines and primary samples were washed in 2% FBS in PBS, blocked with 20 ug/mL Fc receptor block (BD Pharmingen, catalog no. 564219) in PBS then stained with PE-conjugated anti-human Pr20 antibody and APC-conjugated HLA-A2 antibody for 20 minutes on ice. Labeled cells were washed with PBS and resuspended in 2% FBS/PBS prior to flow cytometric analysis.

[2] = biological target: T1, PRAME … (ALY) peptide in complex with …; assay: flow cytometry on THP-1 cells, against isotype control
Description: as §1

- MFI (fold change to isotype control) [1]: 5 fold
- MFI (fold change to isotype control) [2]: 2.75 fold
B1: Pr20 monoclonal antibody (antibody, V domains shown)
VH: QVQLVQSGAEVRKPGASVKVSCKASGGTFSSYAISWVRQAPGQGLEWMGRIIPILGIANYAQKFQGRVTITADKSTSTAYMELSSLRSEDTAVYYCARHYGQWWDYWGQGTLVTVSS
VL: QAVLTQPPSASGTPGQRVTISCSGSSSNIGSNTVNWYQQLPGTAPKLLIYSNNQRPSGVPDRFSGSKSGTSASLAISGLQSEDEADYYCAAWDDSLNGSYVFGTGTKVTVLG
notes: also called Pr20 mAb; Pr20 antibody
